Assay results reported in publication PMC10397247.
One block for each binder: values may come before it.

Assays:
[1] = target: T1, O7-bA; experiment: two-hybrid library CCNG1;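 note: natural log of median RNA to DNA barcode read ratio; higher means stronger binding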
T1 chain: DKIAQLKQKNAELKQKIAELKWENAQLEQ

[2] = target: T2, O9-bA; experiment: two-hybrid library CCNG1;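 note: natural log of median RNA to DNA barcode read ratio; higher means stronger binding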
T2 chain: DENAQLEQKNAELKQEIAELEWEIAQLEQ

[3] = target: T3, O8-bA; experiment: two-hybrid library CCNG1;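 note: natural log of median RNA to DNA barcode read ratio; higher means stronger binding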
T3 chain: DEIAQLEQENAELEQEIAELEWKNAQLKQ

[4] = target: T4, APC3881-AA; experiment: two-hybrid library CCmax; settings: mean of both orientations;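 note: natural log of median RNA to DNA barcode read ratio; higher means stronger binding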
T4 chain: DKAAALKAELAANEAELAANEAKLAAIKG

[5] = target: T5, APC4336-AA; experiment: two-hybrid library CCmax; settings: mean of both orientations;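 note: natural log of median RNA to DNA barcode read ratio; higher means stronger binding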
T5 chain: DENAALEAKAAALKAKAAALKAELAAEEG

[6] = target: T6, APC542-AA; experiment: two-hybrid library CCmax; settings: mean of both orientations;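 note: natural log of median RNA to DNA barcode read ratio; higher means stronger binding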
T6 chain: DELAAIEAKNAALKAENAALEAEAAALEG

[7] = target: T7, APC9291-AA; experiment: two-hybrid library CCmax; settings: mean of both orientations
T7 chain: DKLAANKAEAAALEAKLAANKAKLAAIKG

[8] = target: T8, APC5531-AA; experiment: two-hybrid library CCmax; settings: mean of both orientations
T8 chain: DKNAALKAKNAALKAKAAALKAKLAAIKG

[9] = target: T9, APC6088-AA; experiment: two-hybrid library CCmax; settings: mean of both orientations
T9 chain: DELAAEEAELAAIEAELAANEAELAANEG

[10] = target: T10, APC9806-AA; experiment: two-hybrid library CCmax; settings: mean of both orientations
T10 chain: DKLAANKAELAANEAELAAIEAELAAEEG

[11] = target: T11, APC9141-AA; experiment: two-hybrid library CCmax; settings: mean of both orientations
T11 chain: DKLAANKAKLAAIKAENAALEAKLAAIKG

[12] = target: T12, APC5009-AA; experiment: two-hybrid library CCmax; settings: mean of both orientations
T12 chain: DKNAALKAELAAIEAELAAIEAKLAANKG

[13] = target: T13, APC3354-AA; experiment: two-hybrid library CCmax; settings: mean of both orientations
T13 chain: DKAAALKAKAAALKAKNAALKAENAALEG

[14] = target: T14, APC4100-AA; experiment: two-hybrid library CCmax; settings: mean of both orientations
T14 chain: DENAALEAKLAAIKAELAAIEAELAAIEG

[15] = target: T15, APC3323-AA; experiment: two-hybrid library CCmax
T15 chain: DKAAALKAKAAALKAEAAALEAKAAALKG

[16] = target: T16, APC8401-AA; experiment: two-hybrid library CCmax; settings: mean of both orientations
T16 chain: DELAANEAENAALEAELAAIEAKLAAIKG

[17] = target: T17, APC9182-AA; experiment: two-hybrid library CCmax; settings: mean of both orientations
T17 chain: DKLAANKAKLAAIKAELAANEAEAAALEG

[18] = target: T18, APC7524-AA; experiment: two-hybrid library CCmax; settings: mean of both orientations
T18 chain: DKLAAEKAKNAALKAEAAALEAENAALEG

[19] = target: T19, APC8516-AA; experiment: two-hybrid library CCmax; settings: mean of both orientations
T19 chain: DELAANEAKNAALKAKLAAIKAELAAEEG

[20] = target: T20, 4H953-bA; experiment: two-hybrid library CCNG1
T20 chain: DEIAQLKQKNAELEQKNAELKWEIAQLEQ

[21] = target: T21, 4H967-bA; experiment: two-hybrid library CCNG1
T21 chain: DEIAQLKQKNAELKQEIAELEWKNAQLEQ

[22] = target: T22, 4H968-bA; experiment: two-hybrid library CCNG1
T22 chain: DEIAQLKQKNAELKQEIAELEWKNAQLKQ

[23] = target: T23, 4H2985-AA; experiment: two-hybrid library CCmax
T23 chain: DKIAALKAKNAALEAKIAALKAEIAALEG

[24] = target: T24, 4H3134-AA; experiment: two-hybrid library CCmax; settings: mean of both orientations
T24 chain: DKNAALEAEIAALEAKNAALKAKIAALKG

[25] = target: T25, 4H87-AA; experiment: two-hybrid library CCmax; settings: mean of both orientations
T25 chain: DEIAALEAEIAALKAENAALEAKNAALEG

[26] = target: T26, 4H3409-AA; experiment: two-hybrid library CCmax; settings: mean of both orientations
T26 chain: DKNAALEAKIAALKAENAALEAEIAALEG

[27] = target: T27, 4H775-AA; experiment: two-hybrid library CCmax; settings: mean of both orientations
T27 chain: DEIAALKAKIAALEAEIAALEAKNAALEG

[28] = target: T28, 4H3625-AA; experiment: two-hybrid library CCmax; settings: mean of both orientations
T28 chain: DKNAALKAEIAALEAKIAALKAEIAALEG

[29] = target: T29, 4H816-AA; experiment: two-hybrid library CCmax; settings: mean of both orientations
T29 chain: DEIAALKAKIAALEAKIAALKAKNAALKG

[30] = target: T30, 4H390-AA; experiment: two-hybrid library CCmax; settings: mean of both orientations
T30 chain: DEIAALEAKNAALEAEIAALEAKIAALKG

[31] = target: T31, 4H510-AA; experiment: two-hybrid library CCmax; settings: mean of both orientations
T31 chain: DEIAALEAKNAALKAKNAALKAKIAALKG

[32] = target: T32, 4H3940-AA; experiment: two-hybrid library CCmax; settings: mean of both orientations
T32 chain: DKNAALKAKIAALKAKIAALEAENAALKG

[33] = target: T33, 4H3926-bA; experiment: two-hybrid library CCNG1
T33 chain: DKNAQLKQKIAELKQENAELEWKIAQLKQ

[34] = target: T34, 4H626-bA; experiment: two-hybrid library CCNG1
T34 chain: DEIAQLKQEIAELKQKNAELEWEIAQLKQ

[35] = target: T35, 4H3497-bA; experiment: two-hybrid library CCNG1
T35 chain: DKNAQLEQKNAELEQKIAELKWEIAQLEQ

[36] = target: T36, 4H3613-bA; experiment: two-hybrid library CCNG1
T36 chain: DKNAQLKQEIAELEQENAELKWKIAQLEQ

[37] = target: T37, 4H3628-bA; experiment: two-hybrid library CCNG1
T37 chain: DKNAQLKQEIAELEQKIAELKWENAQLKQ

[38] = target: T38, 4H591-bA; experiment: two-hybrid library CCNG1
T38 chain: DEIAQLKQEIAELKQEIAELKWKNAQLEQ

[39] = target: T39, 4H906-bA; experiment: two-hybrid library CCNG1
T39 chain: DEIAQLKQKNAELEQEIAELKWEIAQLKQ

interaction score [1]: 0.795
interaction score [2]: 0.339
interaction score [3]: 1.39
Binder: DKNAQLKQKIAELKQENAELEWKIAQLKQ [O6-bA]

interaction score [4]: -1.64
interaction score [5]: -2.27
interaction score [6]: -1.45
interaction score [7]: -1.84
interaction score [8]: -1.7
interaction score [9]: -1.65
interaction score [10]: -1.66
interaction score [11]: -2.12
interaction score [12]: -1.38
interaction score [13]: -1.64
interaction score [14]: 1.59
interaction score [15]: 0.173
interaction score [16]: -1.35
interaction score [17]: -1.64
interaction score [18]: -1.5
interaction score [19]: -1.75
Binder: DKAAALKAKAAALKAEAAALEAKAAALKG [APC3323-AA]

interaction score [20]: -0.648
interaction score [1]: -0.716
interaction score [21]: -1.11
interaction score [22]: -1.33
Binder: DEIAQLKQKNAELEQKNAELKWEIAQLEQ [4H953-bA]

interaction score [23]: 0.681
interaction score [24]: -0.682
interaction score [25]: -1.48
interaction score [26]: -0.847
interaction score [27]: -0.922
interaction score [28]: 0.889
interaction score [29]: -0.519
interaction score [30]: 1.71
interaction score [31]: -0.541
interaction score [32]: -0.918
Binder: DKIAALKAKNAALEAKIAALKAEIAALEG [4H2985-AA]

interaction score [33]: -1.24
interaction score [34]: -1.45
interaction score [35]: -0.278
interaction score [36]: -1.15
interaction score [37]: -0.547
interaction score [38]: -1.08
interaction score [39]: -1.2
Binder: DKNAQLEQKNAELEQKIAELKWEIAQLEQ [4H3497-bA]
